Test results published in article PMC2935968 (2010).

T1: GST-Rar1 (wild type) (Arabidopsis thaliana (Mouse-ear cress), UniProt Q9SE33)
T1 chain: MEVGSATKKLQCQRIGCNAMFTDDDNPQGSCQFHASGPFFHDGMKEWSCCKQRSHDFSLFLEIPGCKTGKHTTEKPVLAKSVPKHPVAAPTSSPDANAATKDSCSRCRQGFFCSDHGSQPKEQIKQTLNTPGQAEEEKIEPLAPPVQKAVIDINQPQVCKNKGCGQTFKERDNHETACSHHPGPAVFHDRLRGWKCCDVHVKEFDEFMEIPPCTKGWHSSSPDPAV


What was measured:
[1] = molecular target: T1, GST-Rar1 (wild type); assay: GST pull-down; strengthened by Sgt1; ADP enhances the CHORDI-Hsp90 interaction
[2] = molecular target: Hsp90 ( (Arabidopsis H. vulgare or …, UniProt Q7XJ80)); assay: competition GST pull-down; ATPase stimulation
Hsp90 (, sequence (Q7XJ80 entry or part of it): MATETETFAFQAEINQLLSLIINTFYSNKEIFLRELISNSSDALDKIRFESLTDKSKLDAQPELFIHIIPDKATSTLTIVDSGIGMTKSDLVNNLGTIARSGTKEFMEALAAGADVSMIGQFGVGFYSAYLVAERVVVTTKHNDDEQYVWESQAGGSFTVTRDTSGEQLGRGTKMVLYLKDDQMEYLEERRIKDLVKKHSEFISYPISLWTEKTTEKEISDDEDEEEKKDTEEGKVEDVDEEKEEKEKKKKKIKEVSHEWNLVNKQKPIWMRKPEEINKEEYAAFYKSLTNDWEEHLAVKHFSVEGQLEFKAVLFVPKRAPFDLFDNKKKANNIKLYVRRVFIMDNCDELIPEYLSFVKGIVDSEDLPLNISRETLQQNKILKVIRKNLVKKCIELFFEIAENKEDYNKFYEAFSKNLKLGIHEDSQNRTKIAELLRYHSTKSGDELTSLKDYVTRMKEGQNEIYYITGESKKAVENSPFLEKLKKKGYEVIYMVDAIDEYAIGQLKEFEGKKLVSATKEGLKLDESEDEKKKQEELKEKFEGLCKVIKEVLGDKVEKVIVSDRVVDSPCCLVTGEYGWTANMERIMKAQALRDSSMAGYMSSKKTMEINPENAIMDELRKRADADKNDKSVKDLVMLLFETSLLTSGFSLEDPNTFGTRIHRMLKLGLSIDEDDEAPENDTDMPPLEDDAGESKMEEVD

Binder | binding result [1] | binding result [2]
Hsp90 (protein) not shown | binds | –
Rar1 (wild type, not GST-tagged) (protein) MEVGSATKKLQCQRIGCNAMFTDDDNPQGSCQFHASGPFFHDGMKEWSCCKQRSHDFSLFLEIPGCKTGKHTTEKPVLAKSVPKHPVAAPTSSPDANAATKDSCSRCRQGFFCSDHGSQPKEQIKQTLNTPGQAEEEKIEPLAPPVQKAVIDINQPQVCKNKGCGQTFKERDNHETACSHHPGPAVFHDRLRGWKCCDVHVKEFDEFMEIPPCTKGWHSSSPDPAV | – | binds
